# IntAct's records for PubMed 22512862
# B1: Phosphocarrier protein HPr (Bacillus subtilis), P08877 (parent)
# chain: MAQKTFKVTADSGIHARPATVLVQTASKYDADVNLEYNGKTVNLKSIMGVMSLGIAKGAEITISASGADENDALNALEETMKSEGLGE
# partner: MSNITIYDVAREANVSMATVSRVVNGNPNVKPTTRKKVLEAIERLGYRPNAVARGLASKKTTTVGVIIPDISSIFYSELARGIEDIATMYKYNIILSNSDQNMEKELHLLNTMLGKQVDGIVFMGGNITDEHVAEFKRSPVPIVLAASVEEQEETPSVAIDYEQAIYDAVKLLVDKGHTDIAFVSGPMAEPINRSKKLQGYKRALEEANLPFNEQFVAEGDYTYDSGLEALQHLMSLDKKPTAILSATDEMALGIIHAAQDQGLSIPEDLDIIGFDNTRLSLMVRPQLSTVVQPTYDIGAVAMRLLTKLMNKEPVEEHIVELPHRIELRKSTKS
# Variants of: B1
# Conditions: with ccpa_bacsu ccpA
row,effect of a mutation on the interaction,Variant
1,disrupting interaction,MAQKTFKVTADSGIHARPATVLVQTASKYDADVNLEYNGKTVNLKAIMGVMSLGIAKGAEITISASGADENDALNALEETMKSEGLGE [S46A]
